# Assays:
# [1] = substrate: OC[C@H]1O[C@H](O[C@H]2[C@H](O)[C@@H](O)[C@@H](O[C@H]3[C@H](O)[C@@H](O)[C@@H](O[C@H]4[C@H](O)[C@@H](O)[C@@H](O[C@H]5[C@H](O)[C@@H](O)[C@@H](O[C@H]6[C@H](O)[C@@H](O)C(O)O[C@@H]6CO)O[C@@H]5CO)O[C@@H]4CO)O[C@@H]3CO)O[C@@H]2CO)[C@H](O)[C@@H](O)[C@@H]1O; test: purified protein, by the assay type; conditions: other: wild type enzyme, maltohexose substrate, 60° C.
# [2] = substrate: OC[C@H]1O[C@H](O[C@H]2[C@H](O)[C@@H](O)[C@@H](O[C@H]3[C@H](O)[C@@H](O)[C@@H](O[C@H]4[C@H](O)[C@@H](O)[C@@H](O[C@H]5[C@H](O)[C@@H](O)[C@@H](O[C@H]6[C@H](O)[C@@H](O)C(O)O[C@@H]6CO)O[C@@H]5CO)O[C@@H]4CO)O[C@@H]3CO)O[C@@H]2CO)[C@H](O)[C@@H](O)[C@@H]1O; test: purified protein, by the assay type; format: biochemical, Sulfolobus acidocaldarius; conditions: other: mutant M140L/L202P/L218D/Y323G/F338S/I404T, maltohexose substrate, 60° C.
Protein,Km [1] [mM],Km [2] [mM]
"maltooligosyl trehalose trehalohydrolase (MTHase) derived from Sulfolobus acidocaldarius, wild type (WT), SEQ ID NO.2 (Sulfolobus acidocaldarius) (protein) MFSFGGNIEKNKGIFKLWAPYVNSVKLKLSKKLIPMEKNDEGFFEVEIDDIEENLTYSYIIEDKREIPDPASRYQPLGVHDKSQLIRTDYQILDLGKVKIEDLIIYELHVGTFSQEGNFKGVIEKLDYLKDLGITGIELMPVAQFPGNRDWGYDGVFLYAVQNTYGGPWELAKLVNEAHKRGIAVILDVVYNHIGPEGNYLLGLGPYFSDRYKTPWGLTFNFDDRGCDQVRKFILENVEYWFKTFKIDGLRLDAVHAIFDNSPKHILQEIAEKAHQLGKFVIAESDLNDPKIVKDDCGYKIDAQWVDDFHHAVHAFITKEKDYYYQDFGRIEDIEKTFKDVFVYDGKYSRYRGRTHGAPVGDLPPRKFVVFIQNHDQVGNRGNGERLSILTDKTTYLMAATLYILSPYIPLIFMGEEYYETNPFFFFSDFSDPVLIKGVREGRLKENNQMIDPQSEEAFLKSKLSWKIDEEVLDYYKQLINIRKRYNNCKRVKEVRREGNCITLIMEKIGIIASFDDIVINSKITGNLLIGIGFPKKLKKDELIKVNRGVGVYQLE",3.89 ± 0.34,–
"maltooligosyl trehalose trehalohydrolase (MTHase) derived from Sulfolobus acidocaldarius (parent SEQ ID NO.2), mutant M140L/L202P/L218D/Y323G/F338S/I404T … (protein, sextuple site-directed mutant of the 556-aa parent) MFSFGGNIEKNKGIFKLWAPYVNSVKLKLSKKLIPMEKNDEGFFEVEIDDIEENLTYSYIIEDKREIPDPASRYQPLGVHDKSQLIRTDYQILDLGKVKIEDLIIYELHVGTFSQEGNFKGVIEKLDYLKDLGITGIELLPVAQFPGNRDWGYDGVFLYAVQNTYGGPWELAKLVNEAHKRGIAVILDVVYNHIGPEGNYLPGLGPYFSDRYKTPWGDTFNFDDRGCDQVRKFILENVEYWFKTFKIDGLRLDAVHAIFDNSPKHILQEIAEKAHQLGKFVIAESDLNDPKIVKDDCGYKIDAQWVDDFHHAVHAFITKEKDGYYQDFGRIEDIEKTSKDVFVYDGKYSRYRGRTHGAPVGDLPPRKFVVFIQNHDQVGNRGNGERLSILTDKTTYLMAATLYTLSPYIPLIFMGEEYYETNPFFFFSDFSDPVLIKGVREGRLKENNQMIDPQSEEAFLKSKLSWKIDEEVLDYYKQLINIRKRYNNCKRVKEVRREGNCITLIMEKIGIIASFDDIVINSKITGNLLIGIGFPKKLKKDELIKVNRGVGVYQLE",–,3.4 ± 0.94

# From patent US10465177B2, “Maltooligosyl trehalose trehalohydrolase (MTHase) mutant and application thereof” (Jiangnan University, priority 2018, dated 2019)
